From patent US20200377590A1 (Hoffmann-La Roche, published 2020)

T1: CD81 (UniProt P60033 1-236, limits assumed)
T1 construct: whole, on cells; also called CD81 receptor
T1 sequence (looked up): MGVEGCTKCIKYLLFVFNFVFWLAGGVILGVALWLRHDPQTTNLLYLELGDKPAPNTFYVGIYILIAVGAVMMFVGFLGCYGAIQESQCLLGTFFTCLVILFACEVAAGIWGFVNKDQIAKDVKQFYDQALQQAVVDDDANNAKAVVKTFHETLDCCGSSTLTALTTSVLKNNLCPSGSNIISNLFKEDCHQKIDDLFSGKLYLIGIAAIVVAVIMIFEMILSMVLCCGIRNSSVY

B1: CD81K04 HC GG-01-hVH_5_51 / LC GG-02-hVK_4_1 (antibody, V domains shown)
VH: EVQLVQSGAEVKKPGESLKISCKGSGYSFSSSWMNWVRQMPGKGLEWMGRIYSGDGDAIYSPSFQGQVTISADKSISTAYLQLSSLKASDTAMYYCAREGKTGDLLLRSWGQGTLVTVSS
VL: DIVMTQSPDSLAVSLGERATINCKSSKSVSTSIYSYMHWYQQKPGQPPKLLIYYASYRESGVPDRFSGSGSGTDFTLTISSLQAEDVAVYYCQHSREFPFTFGQGTKLEIK
notes: human constant region
B2: CD81K04 HC GG-04-hVH_1_69 / LC CD81K04 (antibody, V domains shown)
VH: QVQLVQSGAEVKKPGSSVKVSCKASGYTFSSSWMNWVRQAPGQGLEWMGRIYSGDGDAIYNQKFQGRATITADESTSTAYMELSSLRSEDTAVYYCAREGKTGDLLLRSWGQGTLVTVSS
VL: DIVLTQSPASLSVSLGQRATISCRASKSVSTSIYSYMHWYQQKPGQPPKLLIKYASYLESGVPARFSGSGSGTDFTLNIHPVEEEDAATYYCEHSREFPFTFGTGTKLEIK
notes: human constant region
B3: CD81K04 HC GG-01-hVH_5_51 / LC CD81K04 (antibody, V domains shown)
VH: EVQLVQSGAEVKKPGESLKISCKGSGYSFSSSWMNWVRQMPGKGLEWMGRIYSGDGDAIYSPSFQGQVTISADKSISTAYLQLSSLKASDTAMYYCAREGKTGDLLLRSWGQGTLVTVSS
VL: DIVLTQSPASLSVSLGQRATISCRASKSVSTSIYSYMHWYQQKPGQPPKLLIKYASYLESGVPARFSGSGSGTDFTLNIHPVEEEDAATYYCEHSREFPFTFGTGTKLEIK
notes: human constant region
B4: CD81K04 HC CD81K04 / LC CD81K04 (antibody, V domains shown)
VH: QVQLQQSGPELVKPGASVKISCKASGYTFSSSWMNWVKQRPGKGLEWIGRIYSGDGDAIYNGKFKGKATLTADKSSSTAYMQLSSLTSEDSAVYFCAREGKTGDLLLRSWGQGSALTVSS
VL: DIVLTQSPASLSVSLGQRATISCRASKSVSTSIYSYMHWYQQKPGQPPKLLIKYASYLESGVPARFSGSGSGTDFTLNIHPVEEEDAATYYCEHSREFPFTFGTGTKLEIK
notes: human constant region; also called CD81K04 (chimeric form)
B5: CD81K04 HC JA_GG-13-hVH_1_69 / LC CD81K04 (antibody, V domains shown)
VH: QVQLVQSGAEVKKPGSSVKVSCKASGGTFSSSWMNWVRQAPGQGLEWMGRIYSGDGDAIYAQKFQGRVTITADESTSTAYMELSSLRSEDTAVYYCAREGKTGDLLLRSWGQGTLVTVSS
VL: DIVLTQSPASLSVSLGQRATISCRASKSVSTSIYSYMHWYQQKPGQPPKLLIKYASYLESGVPARFSGSGSGTDFTLNIHPVEEEDAATYYCEHSREFPFTFGTGTKLEIK
notes: human constant region
B6: CD81K04 HC JA_GG-16-hVH_1_3 / LC CD81K04 (antibody, V domains shown)
VH: QVQLVQSGAEVKKPGASVKVSCKASGYTFSSSWMNWVRQAPGQGLEWMGRIYSGDGDAIYNGKFKGRVTITADTSASTAYMELSSLRSEDTAVYYCAREGKTGDLLLRSWGQGTLVTVSS
VL: DIVLTQSPASLSVSLGQRATISCRASKSVSTSIYSYMHWYQQKPGQPPKLLIKYASYLESGVPARFSGSGSGTDFTLNIHPVEEEDAATYYCEHSREFPFTFGTGTKLEIK
notes: human constant region
B7: CD81K04 HC JA_GG-14-hVH_1_3 / LC CD81K04 (antibody, V domains shown)
VH: QVQLVQSGAEVKKPGASVKVSCKASGYTFSSSWMNWVRQAPGQGLEWMGRIYSGDGDAIYNGKFKGRATITADTSASTAYMELSSLRSEDTAVYYCAREGKTGDLLLRSWGQGTLVTVSS
VL: DIVLTQSPASLSVSLGQRATISCRASKSVSTSIYSYMHWYQQKPGQPPKLLIKYASYLESGVPARFSGSGSGTDFTLNIHPVEEEDAATYYCEHSREFPFTFGTGTKLEIK
notes: human constant region
B8: CD81K04 HC JA_GG-14-hVH_1_69-GA / LC CD81K04 (antibody, V domains shown)
VH: QVQLVQSGAEVKKPGSSVKVSCKASGYTFSSSWMNWVRQAPGQGLEWMGRIYSGDGDAIYNGKFKGKATITADESTSTAYMELSSLRSEDTAVYYCAREGKTGDLLLRSWGQGTLVTVSS
VL: DIVLTQSPASLSVSLGQRATISCRASKSVSTSIYSYMHWYQQKPGQPPKLLIKYASYLESGVPARFSGSGSGTDFTLNIHPVEEEDAATYYCEHSREFPFTFGTGTKLEIK
notes: human constant region
B9: CD81K04 HC GG-07-hVH_5_51 / LC CD81K04 (antibody, V domains shown)
VH: EVQLVQSGAEVKKPGESLKISCKGSGYSFSSSWMCWVRQMPGKGLEWMGCIYSGDGDAIYSPSFQGQVTISADKSISTAYLQLSSLKASDTAMYYCAREGKTGDLLLRSWGQGTLVTVSS
VL: DIVLTQSPASLSVSLGQRATISCRASKSVSTSIYSYMHWYQQKPGQPPKLLIKYASYLESGVPARFSGSGSGTDFTLNIHPVEEEDAATYYCEHSREFPFTFGTGTKLEIK
notes: human constant region
B10: CD81K04 HC GG-06-hVH_1_69 / LC CD81K04 (antibody, V domains shown)
VH: QVQLVQSGAEVKKPGSSVKVSCKASGYTFSSSWMCWVRQAPGQGLEWMGCIYSGDGDAIYNQKFQGRVTITADESTSTAYMELSSLRSEDTAVYYCAREGKTGDLLLRSWGQGTLVTVSS
VL: DIVLTQSPASLSVSLGQRATISCRASKSVSTSIYSYMHWYQQKPGQPPKLLIKYASYLESGVPARFSGSGSGTDFTLNIHPVEEEDAATYYCEHSREFPFTFGTGTKLEIK
notes: human constant region
B11: CD81K04 HC K04_JA-13-hVH_1_3 / LC CD81K04 (antibody, V domains shown)
VH: QVQLVQSGAEVKKPGASVKVSCKASGYTFSSSWMNWVRQAPGQRLEWMGRIYSGDGDAIYNGKFKGRVTITRDTSASTAYMELSSLRSEDTAVYYCAREGKTGDLLLRSWGQGTLVTVSS
VL: DIVLTQSPASLSVSLGQRATISCRASKSVSTSIYSYMHWYQQKPGQPPKLLIKYASYLESGVPARFSGSGSGTDFTLNIHPVEEEDAATYYCEHSREFPFTFGTGTKLEIK
notes: human constant region
B12: CD81K04 HC JA_GG-15-hVH_1_3 / LC CD81K04 (antibody, V domains shown)
VH: QVQLVQSGAEVKKPGASVKVSCKASGYTFSSSWMNWVRQAPGQRLEWMGRIYSGDGDAIYNGKFKGRVTITADTSASTAYMELSSLRSEDTAVYYCAREGKTGDLLLRSWGQGTLVTVSS
VL: DIVLTQSPASLSVSLGQRATISCRASKSVSTSIYSYMHWYQQKPGQPPKLLIKYASYLESGVPARFSGSGSGTDFTLNIHPVEEEDAATYYCEHSREFPFTFGTGTKLEIK
notes: human constant region
B13: CD81K04 HC JA_GG-14-hVH_1_69 / LC CD81K04 (antibody, V domains shown)
VH: QVQLVQSGAEVKKPGSSVKVSCKASGYTFSSSWMNWVRQAPGQGLEWMGRIYSGDGDAIYNGKFKGKATITADESTSTAYMELSSLRSEDTAVYYCAREGKTGDLLLRSWGQGTLVTVSS
VL: DIVLTQSPASLSVSLGQRATISCRASKSVSTSIYSYMHWYQQKPGQPPKLLIKYASYLESGVPARFSGSGSGTDFTLNIHPVEEEDAATYYCEHSREFPFTFGTGTKLEIK
notes: human constant region
B14: CD81K04 HC CD81K04 / LC GG-06-hVK_1_39 (antibody, V domains shown)
VH: QVQLQQSGPELVKPGASVKISCKASGYTFSSSWMNWVKQRPGKGLEWIGRIYSGDGDAIYNGKFKGKATLTADKSSSTAYMQLSSLTSEDSAVYFCAREGKTGDLLLRSWGQGSALTVSS
VL: DIQMTQSPSSLSASVGDRVTITCRASKSVSTSIYSYLNWYQQKPGKAPKLLIYYASYLQSGVPSRFSGSGSGTDFTLTISSLQPEDFATYYCQHSREFPYTFGQGTKLEIK
notes: human constant region
B15: CD81K04 HC CD81K04 / LC GG-02-hVK_4_1 (antibody, V domains shown)
VH: QVQLQQSGPELVKPGASVKISCKASGYTFSSSWMNWVKQRPGKGLEWIGRIYSGDGDAIYNGKFKGKATLTADKSSSTAYMQLSSLTSEDSAVYFCAREGKTGDLLLRSWGQGSALTVSS
VL: DIVMTQSPDSLAVSLGERATINCKSSKSVSTSIYSYMHWYQQKPGQPPKLLIYYASYRESGVPDRFSGSGSGTDFTLTISSLQAEDVAVYYCQHSREFPFTFGQGTKLEIK
notes: human constant region
B16: CD81K04 HC CD81K04 / LC JA_GG-10-hVK_4_1 (antibody, V domains shown)
VH: QVQLQQSGPELVKPGASVKISCKASGYTFSSSWMNWVKQRPGKGLEWIGRIYSGDGDAIYNGKFKGKATLTADKSSSTAYMQLSSLTSEDSAVYFCAREGKTGDLLLRSWGQGSALTVSS
VL: DIVMTQSPDSLAVSLGERATINCRASKSVSTSIYSYMHWYQQKPGQPPKLLIKYASYLESGVPDRFSGSGSGTDFTLTISSLQAEDVAVYYCEHSREFPFTFGQGTKLEIK
notes: human constant region

The binders below were run against T1, CD81 (assay: cell ELISA;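 also: antibody binding to HuH7 cells expressing CD81 versus a CD81-negative HuH7 control line, bound antibody detected by secondary reagent, absorbance at 450 nm with 620 nm reference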).
For B1, the ELISA data was 0.081. With B2 the ELISA data was 0.859. B3 was tested, and the ELISA data was 0.082. Binder B4 has an ELISA data of 1.14. Binder B5 has an ELISA data of 0.564. B6 was tested, and the ELISA data was 0.98. B7 gave an ELISA data of 0.998. For B8, the ELISA data was 0.877. For B9, the ELISA data was 0.233. With B10 the ELISA data was 0.342. For B11, the ELISA data was 0.974. In the case of B12, the ELISA data is reported as 1. Work on B13 yielded an ELISA data of 0.996. Work on B14 yielded an ELISA data of 0.185. Binder B15 has an ELISA data of 0.785. B16 was tested, and the ELISA data was 1.06.
